Source: patent US20230303698A1 (published 2023)
Like-named read-outs stand apart in the source and are kept apart here. Blank lines part the entries; values can stand above or below the binder they belong to.

Experiments:
human OX40 = target: T1, human OX40 (human, UniProt P43489 29-277); assay: FACS
T1 chain: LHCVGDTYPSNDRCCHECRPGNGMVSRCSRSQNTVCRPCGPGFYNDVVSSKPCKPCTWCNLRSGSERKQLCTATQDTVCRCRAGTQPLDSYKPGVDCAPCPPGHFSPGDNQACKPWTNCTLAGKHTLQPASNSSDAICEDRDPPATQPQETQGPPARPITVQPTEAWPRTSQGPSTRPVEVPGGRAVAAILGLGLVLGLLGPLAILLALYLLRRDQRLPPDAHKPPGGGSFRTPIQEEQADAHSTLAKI

human PD-L1 [1] = target: T2, human PD-L1 (human, UniProt Q9NZQ7 19-290); assay: FACS binding to CHO-K1/hPD-L1 cells
T2 sequence (Q9NZQ7 19-290): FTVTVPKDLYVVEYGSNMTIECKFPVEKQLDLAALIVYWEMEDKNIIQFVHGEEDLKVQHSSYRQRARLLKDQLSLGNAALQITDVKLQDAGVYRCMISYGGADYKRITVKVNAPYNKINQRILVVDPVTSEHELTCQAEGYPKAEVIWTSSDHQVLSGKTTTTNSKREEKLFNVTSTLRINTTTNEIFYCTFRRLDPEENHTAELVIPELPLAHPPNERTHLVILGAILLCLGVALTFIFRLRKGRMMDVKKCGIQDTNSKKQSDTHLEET

human 4-1BB [2] = target: T3, human 4-1BB (human, UniProt Q07011 24-255); assay: FACS
human 4-1BB [3] = target: T3, human 4-1BB; assay: FACS; FIG. 5
human 4-1BB [4] = target: T3, human 4-1BB; assay: FACS; FIG. 6
human 4-1BB [5] = target: T3, human 4-1BB; assay: FACS; panel A
human 4-1BB [6] = target: T3, human 4-1BB; assay: FACS; panel B
human 4-1BB [7] = target: T3, human 4-1BB; assay: FACS; panel A; remark: listed apart in the source
human 4-1BB [8] = target: T3, human 4-1BB; assay: FACS; panel B; remark: listed apart in the source
human 4-1BB [9] = target: T3, human 4-1BB; assay: FACS; panel C
[10] = target: T4, cynomolgus monkey OX40-His protein (cynomolgus monkey); assay: ELISA
T4 chain: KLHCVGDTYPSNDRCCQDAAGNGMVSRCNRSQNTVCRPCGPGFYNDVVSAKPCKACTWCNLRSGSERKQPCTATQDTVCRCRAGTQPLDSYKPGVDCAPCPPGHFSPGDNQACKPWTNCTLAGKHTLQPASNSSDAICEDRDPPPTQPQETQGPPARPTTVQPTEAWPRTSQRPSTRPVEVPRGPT

human 4-1BB [11] = target: T3, human 4-1BB; assay: FACS; remark: listed apart in the source
human PSMA [12] = target: T5, human PSMA (human, UniProt Q04609 1-750); assay: FACS binding to LNCaP cells
T5 sequence (Q04609 whole entry): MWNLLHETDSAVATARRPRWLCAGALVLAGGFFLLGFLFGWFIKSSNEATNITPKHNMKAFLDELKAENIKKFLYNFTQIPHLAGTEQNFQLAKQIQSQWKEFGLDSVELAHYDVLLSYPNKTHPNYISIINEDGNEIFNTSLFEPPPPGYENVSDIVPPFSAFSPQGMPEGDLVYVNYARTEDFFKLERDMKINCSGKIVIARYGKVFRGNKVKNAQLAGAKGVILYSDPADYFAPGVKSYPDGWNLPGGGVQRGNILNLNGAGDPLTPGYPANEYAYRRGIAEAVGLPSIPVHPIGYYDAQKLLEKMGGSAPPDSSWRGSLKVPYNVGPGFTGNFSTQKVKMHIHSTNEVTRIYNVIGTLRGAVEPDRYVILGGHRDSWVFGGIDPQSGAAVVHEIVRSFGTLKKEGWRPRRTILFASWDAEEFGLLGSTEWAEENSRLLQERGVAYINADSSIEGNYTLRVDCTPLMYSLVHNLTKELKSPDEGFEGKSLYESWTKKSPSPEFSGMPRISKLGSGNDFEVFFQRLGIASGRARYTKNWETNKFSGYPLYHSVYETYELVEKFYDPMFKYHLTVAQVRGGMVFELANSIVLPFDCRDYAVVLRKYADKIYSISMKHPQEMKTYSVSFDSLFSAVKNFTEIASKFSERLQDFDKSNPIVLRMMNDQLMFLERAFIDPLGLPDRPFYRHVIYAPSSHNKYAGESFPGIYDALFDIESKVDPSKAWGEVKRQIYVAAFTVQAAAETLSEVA

human PSMA [13] = target: T5, human PSMA; assay: FACS binding to LNCaP cells; remark: listed apart in the source
human 4-1BB [14] = target: T3, human 4-1BB; assay: FACS; remark: listed apart in the source
cynomolgus monkey 4-1BB = target: T6, cynomolgus monkey 4-1BB (cynomolgus monkey); assay: FACS
T6 chain: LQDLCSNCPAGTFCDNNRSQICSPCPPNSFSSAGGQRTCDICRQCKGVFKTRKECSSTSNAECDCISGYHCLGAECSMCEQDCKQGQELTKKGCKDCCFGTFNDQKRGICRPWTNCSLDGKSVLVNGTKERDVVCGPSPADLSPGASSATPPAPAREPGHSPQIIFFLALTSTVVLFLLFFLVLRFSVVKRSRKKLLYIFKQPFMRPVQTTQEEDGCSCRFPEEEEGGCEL

human 4-1BB [15] = target: T3, human 4-1BB; assay: FACS; remark: listed apart in the source
human PD-L1 [16] = target: T2, human PD-L1; assay: FACS; panel A
human PD-L1 [17] = target: T2, human PD-L1; assay: FACS; panel B
human PD-L1 [18] = target: T2, human PD-L1; assay: FACS; panel C
human CLDN18.2 = assay: FACS binding to NUGC-4 cells

EC50 (human OX40): 3.98 nM
EC50 (human PD-L1 [1]): 1.37 nM
B1: PR003789 (bispecific antibody)
light: DIQMTQSPSTLSASVGDRVTVTCRASQSIYIWLAWYQQKPGKAPNLLIYKASSLETGVPSRFSGSGSGTEFTLTISSLQPDDFATYYCQQYYGSSRTFGQGTKVEIKRTVAAPSVFIFPPSDEQLKSGTASVVCLLNNFYPREAKVQWKVDNALQSGNSQESVTEQDSKDSTYSLSSTLTLSKADYEKHKVYACEVTHQGLSSPVTKSFNRGEC
heavy: EVQLVESGGGLVQPGGSLRLSCAASGFTFSSYWMSWVRQAPGKGLEWVANIKQEGSEKYYVDSVKGRFTISRDNAKNSLYLQMNSLRAEDTAVYYCARDRAVAGAFDIWGQGTMVTVSSASTKGPSVFPLAPSSKSTSGGTAALGCLVKDYFPEPVTVSWNSGALTSGVHTFPAVLQSSGLYSLSSVVTVPSSSLGTQTYICNVNHKPSNTKVDKKVEPKSCDKTHTCPPCPAPEAAGGPSVFLFPPKPKDTLMISRTPEVTCVVVDVSHEDPEVKFNWYVDGVEVHNAKTKPREEQYNSTYRVVSVLTVLHQDWLNGKEYKCKVSNKALGAPIEKTISKAKGQPREPQVYTLPPSREEMTKNQVSLTCLVKGFYPSDIAVEWESNGQPENNYKTTPPVLDSDGSFFLYSKLTVDKSRWQQGNVFSCSVMHEALHNHYTQKSLSLSPGAEPKSSDKTHTPPPPPEVQLLESGGGLVQPGGSLRLSCAASGFTFSSYAMSWVRQAPGKGLEWVSAISGRGGSTFYADSVRGRFTISRDNSKNTLYLQMNSLRAEDTAMYYCVDGTTGTTDVDYWGQGTLVTVSS

EC50 (human 4-1BB [2]): 1.51 nM
EC50 (human 4-1BB [3]): 0.459 nM
EC50 (human 4-1BB [4]): 0.459 nM
EC50 (human 4-1BB [5]): 1.01 nM
EC50 (human 4-1BB [6]): 0.347 nM
EC50 (human 4-1BB [7]): 0.424 nM
EC50 (human 4-1BB [8]): 0.794 nM
EC50 (human 4-1BB [9]): 1.51 nM
B2: Anti-4-1BB monoclonal antibody urelumab analog (antibody, V domains shown)
VH: QVQLQQWGAGLLKPSETLSLTCAVYGGSFSGYYWSWIRQSPEKGLEWIGEINHGGYVTYNPSLESRVTISVDTSKNQFSLKLSSVTAADTAVYYCARDYGPGNYDWYFDLWGRGTLVTVSS
VL: EIVLTQSPATLSLSPGERATLSCRASQSVSSYLAWYQQKPGQAPRLLIYDASNRATGIPARFSGSGSGTDFTLTISSLEPEDFAVYYCQQRSNWPPALTFGGGTKVEIKR

EC50 [10]: 0.194 nM
B3: Anti-OX40 monoclonal antibody vonlerolizumab analog (antibody, V domains shown)
VH: EVQLVQSGAEVKKPGASVKVSCKASGYTFTDSYMSWVRQAPGQGLEWIGDMYPDNGDSSYNQKFRERVTITRDTSTSTAYLELSSLRSEDTAVYYCVLAPRWYFSVWGQGTLVTVSS
VL: DIQMTQSPSSLSASVGDRVTITCRASQDISNYLNWYQQKPGKAPKLLIYYTSRLRSGVPSRFSGSGSGTDFTLTISSLQPEDFATYYCQQGHTLPPTFGQGTKVEIKR

EC50 (human 4-1BB [11]): 0.951 nM
EC50 (human PSMA [12]): 0.876 nM
B4: PR003557 (bispecific antibody)
light: DIQMTQSPSSLSASIGDRVTITCRASQSINSYLNWYQQKPGKAPKLLIYTASSLLSGVPSRFSASGSWTDFSLTISSLQPEDFATYYCQQSFSTPYTFGQGTNLEIKRTVAAPSVFIFPPSDEQLKSGTASVVCLLNNFYPREAKVQWKVDNALQSGNSQESVTEQDSKDSTYSLSSTLTLSKADYEKHKVYACEVTHQGLSSPVTKSFNRGEC
heavy: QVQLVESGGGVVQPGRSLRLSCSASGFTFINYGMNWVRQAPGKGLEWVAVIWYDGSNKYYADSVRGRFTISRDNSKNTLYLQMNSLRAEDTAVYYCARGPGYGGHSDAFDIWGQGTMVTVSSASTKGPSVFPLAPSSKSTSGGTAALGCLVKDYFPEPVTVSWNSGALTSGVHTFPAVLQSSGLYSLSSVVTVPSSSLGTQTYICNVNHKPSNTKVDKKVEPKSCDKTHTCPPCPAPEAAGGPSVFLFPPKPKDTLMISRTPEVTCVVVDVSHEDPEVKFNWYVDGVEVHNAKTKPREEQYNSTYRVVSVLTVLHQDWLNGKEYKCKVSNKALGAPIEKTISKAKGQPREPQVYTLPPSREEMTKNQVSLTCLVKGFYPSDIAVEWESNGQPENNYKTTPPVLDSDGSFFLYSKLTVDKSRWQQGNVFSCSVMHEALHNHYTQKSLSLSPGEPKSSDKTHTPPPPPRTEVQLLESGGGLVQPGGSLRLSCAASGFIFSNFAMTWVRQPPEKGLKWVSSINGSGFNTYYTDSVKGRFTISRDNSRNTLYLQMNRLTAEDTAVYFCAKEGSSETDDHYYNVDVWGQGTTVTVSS

EC50 (human 4-1BB [11]): 0.819 nM
EC50 (human PSMA [12]): 0.802 nM
B5: PR003555 (bispecific antibody)
light: B4 light
heavy: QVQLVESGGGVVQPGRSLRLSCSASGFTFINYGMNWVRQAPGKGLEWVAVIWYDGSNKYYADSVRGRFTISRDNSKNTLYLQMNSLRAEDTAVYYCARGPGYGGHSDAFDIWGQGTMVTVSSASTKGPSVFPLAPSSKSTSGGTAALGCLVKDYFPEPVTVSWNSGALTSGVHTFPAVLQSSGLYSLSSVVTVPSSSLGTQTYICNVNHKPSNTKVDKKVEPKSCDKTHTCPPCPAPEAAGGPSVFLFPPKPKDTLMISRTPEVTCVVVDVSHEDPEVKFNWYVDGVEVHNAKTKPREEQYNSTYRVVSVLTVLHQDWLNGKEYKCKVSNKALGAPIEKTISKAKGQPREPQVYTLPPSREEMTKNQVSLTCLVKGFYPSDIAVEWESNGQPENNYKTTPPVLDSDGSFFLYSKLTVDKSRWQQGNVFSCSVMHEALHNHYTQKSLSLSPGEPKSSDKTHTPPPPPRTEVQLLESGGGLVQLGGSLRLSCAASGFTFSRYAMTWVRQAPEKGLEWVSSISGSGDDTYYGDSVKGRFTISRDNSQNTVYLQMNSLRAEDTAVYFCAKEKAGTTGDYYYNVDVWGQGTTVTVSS

EC50 (human OX40): 4.96 nM
EC50 (human PSMA [13]): 6.7 nM
B6: PR004284 (bispecific antibody)
light: B4 light
heavy: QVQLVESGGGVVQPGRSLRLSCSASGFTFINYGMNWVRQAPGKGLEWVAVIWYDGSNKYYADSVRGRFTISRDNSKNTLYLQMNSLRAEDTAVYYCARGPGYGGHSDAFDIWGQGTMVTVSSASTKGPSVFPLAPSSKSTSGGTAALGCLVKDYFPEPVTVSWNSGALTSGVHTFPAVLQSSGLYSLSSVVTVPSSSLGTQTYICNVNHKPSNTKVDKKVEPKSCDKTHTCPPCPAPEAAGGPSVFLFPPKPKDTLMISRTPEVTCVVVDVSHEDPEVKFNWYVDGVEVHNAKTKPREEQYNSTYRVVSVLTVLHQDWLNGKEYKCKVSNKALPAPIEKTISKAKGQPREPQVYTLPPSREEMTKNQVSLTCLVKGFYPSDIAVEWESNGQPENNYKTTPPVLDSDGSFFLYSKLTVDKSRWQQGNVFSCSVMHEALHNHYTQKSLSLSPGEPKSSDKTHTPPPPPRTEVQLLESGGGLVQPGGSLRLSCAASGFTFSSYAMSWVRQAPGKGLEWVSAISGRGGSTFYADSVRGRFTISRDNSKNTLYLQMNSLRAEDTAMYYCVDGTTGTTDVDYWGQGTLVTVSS

EC50 (human 4-1BB [11]): 0.476 nM
EC50 (human PSMA [12]): 0.687 nM
B7: PR003556 (bispecific antibody)
light: B4 light
heavy: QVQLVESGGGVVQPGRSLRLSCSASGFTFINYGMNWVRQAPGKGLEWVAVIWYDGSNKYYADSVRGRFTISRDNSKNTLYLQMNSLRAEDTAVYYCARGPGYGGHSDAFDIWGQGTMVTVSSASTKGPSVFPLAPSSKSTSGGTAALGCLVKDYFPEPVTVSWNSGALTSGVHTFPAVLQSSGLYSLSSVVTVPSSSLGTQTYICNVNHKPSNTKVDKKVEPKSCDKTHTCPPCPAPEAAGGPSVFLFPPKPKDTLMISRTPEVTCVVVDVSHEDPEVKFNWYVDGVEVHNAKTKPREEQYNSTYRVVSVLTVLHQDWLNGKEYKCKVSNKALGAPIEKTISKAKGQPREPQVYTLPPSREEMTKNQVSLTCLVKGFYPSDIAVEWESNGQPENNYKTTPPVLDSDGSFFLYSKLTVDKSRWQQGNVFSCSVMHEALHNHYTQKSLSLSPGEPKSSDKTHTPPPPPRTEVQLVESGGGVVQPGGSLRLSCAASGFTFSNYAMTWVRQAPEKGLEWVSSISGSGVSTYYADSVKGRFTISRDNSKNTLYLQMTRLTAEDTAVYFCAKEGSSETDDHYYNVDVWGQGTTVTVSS

EC50 (human 4-1BB [14]): 3.76 nM
EC50 (cynomolgus monkey 4-1BB): 0.443 nM
EC50 (human 4-1BB [15]): 3.76 nM
B8: PR001760, anti-4-1BB heavy-chain antibody 1016P0011G10 (antibody, V domains shown)
VH: EVQLVESGGGVVQPGGSLRLSCAASGFTFSNYAMTWVRQAPEKGLEWVSSISGSGVSTYYADSVKGRFTISRDNSKNTLYLQMTRLTAEDTAVYFCAKEGSSETDDHYYNVDVWGQGTTVTVSS

EC50 (human PD-L1 [16]): 0.781 nM
EC50 (human PD-L1 [17]): 0.356 nM
EC50 (human PD-L1 [18]): 1.56 nM
EC50 (human PD-L1 [1]): 1.26 nM
B9: PR000265, anti-PD-L1 91G3H5H3(D54E), hIgG1(N297A) (antibody, V domains shown)
VH: EVQLVESGGGLVQPGGSLRLSCAASGFTFSSYWMSWVRQAPGKGLEWVANIKQEGSEKYYVDSVKGRFTISRDNAKNSLYLQMNSLRAEDTAVYYCARDRAVAGAFDIWGQGTMVTVSS
VL: DIQMTQSPSTLSASVGDRVTVTCRASQSIYIWLAWYQQKPGKAPNLLIYKASSLETGVPSRFSGSGSGTEFTLTISSLQPDDFATYYCQQYYGSSRTFGQGTKVEIKR

EC50 (human OX40): 17.8 nM
EC50 [10]: 0.232 nM
B10: PR002067, anti-OX40 heavy-chain antibody R1026P079E12 (antibody, V domains shown)
VH: EVQLLESGGGLVQPGGSLRLSCAASGFTFSSYAMSWVRQAPGKGLEWVSAISGRGGSTFYADSVRGRFTISRDNSKNTLYLQMNSLRAEDTAMYYCVDGTTGTTDVDYWGQGTLVTVSS

EC50 (human CLDN18.2): 4.98 nM
B11: PR002726, anti-CLDN18.2 monoclonal antibody 13E6F4 hIgG1 (antibody, V domains shown)
VH: EVQLLESGGGLVQPGGSLRLSCAASGFTFSSFVMSWVRQAPGKGLEWVSTISGSGRSTYYADSVKGRFTISRDNSKNTLHLQMNSLRAEDTAVYYCAKDAAAAGTKFDYWGQGTLVTVSS
VL: EIVLTQSPATLSLSPGERATLSCRASQSVSSYLAWYQQKPGQAPRLLIYDASNRATGIPARFSGSGSGTDFTLTISSLEPEDFAVYYCQQRSNWPLTFGGGTKVEIKR

EC50 (human PSMA [12]): 0.702 nM
EC50 (human PSMA [13]): 2.58 nM
B12: PR001331, anti-PSMA monoclonal antibody 2E8A1B1 hIgG1 (antibody, V domains shown)
VH: QVQLVESGGGVVQPGRSLRLSCSASGFTFINYGMNWVRQAPGKGLEWVAVIWYDGSNKYYADSVRGRFTISRDNSKNTLYLQMNSLRAEDTAVYYCARGPGYGGHSDAFDIWGQGTMVTVSS
VL: DIQMTQSPSSLSASIGDRVTITCRASQSINSYLNWYQQKPGKAPKLLIYTASSLLSGVPSRFSASGSWTDFSLTISSLQPEDFATYYCQQSFSTPYTFGQGTNLEIKR
